For the assay, the target named is T1, cynomolgus monkey IL-6 (cynomolgus monkey, UniProt P79341 28-212, limits assumed).
T1 sequence (looked up): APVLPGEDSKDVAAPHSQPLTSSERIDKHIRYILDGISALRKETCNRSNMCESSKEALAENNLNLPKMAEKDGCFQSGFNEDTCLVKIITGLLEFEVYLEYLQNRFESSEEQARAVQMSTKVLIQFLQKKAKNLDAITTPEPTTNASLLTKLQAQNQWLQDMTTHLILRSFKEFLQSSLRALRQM
The assay can be described thus: tissue cross-reactivity study, cynomolgus monkey tissues.

B1: clazakizumab (antibody, human IgG1, kappa, N297A, V domains shown)
VH: EVQLVESGGGLVQPGGSLRLSCAASGFSLSNYYVTWVRQAPGKGLEWVGIIYGSDETAYATSAIGRFTISRDNSKNTLYLQMNSLRAEDTAVYYCARDDSSDWDAKFNLWGQGTLVTVSS
VL: AIQMTQSPSSLSASVGDRVTITCQASQSINNELSWYQQKPGKAPKLLIYRASTLASGVPSRFSGSGSGTDFTLTISSLQPDDFATYYCQQGYSLRNIDNAFGGGTKVEIKR
notes: Humanized IgG1 monoclonal antibody; also called anti-IL-6 mAb clazakizumab
As for B1, the binding result is given as “binds”.

Values taken from US20230174640A1 (VITAERIS, published 2023).
